According to patent publication US7589207B2, “Cyclohexyl compounds as CCR5 antagonists” (SmithKline Beecham Corporation, priority 2002, dated 2009):

Target: T1, human CCR5 chemokine receptor (Homo sapiens, UniProt P51681)
T1 construct: host or cells: Chinese Hamster Ovary (CHO) cells; membranes prepared from the cell pellet
Experiment: CC-Chemokine Receptor-5 binding by Scintillation Proximity Assay (CCR5 SPA), displacement of 125I-MIP1α
Conditions: standard compound, 14-point concentration-response curve in triplicate, starting concentration 1 μM
Procedure: CC-Chemokine Receptor-5 Binding by Scintillation Proximity Assay (CCR5 SPA) Scintillation Proximity Assay for the Human CC-Chemokine Receptor, CCR-5
This protocol describes a high-throughput screen using SPA binding to identify compounds that inhibit binding of ^125I-MIP1α to the human CCR5 chemokine receptor.
Human CCR5 receptors were expressed in Chinese Hamster Ovary (CHO) cells, registration # 12025. Cells were grown in suspension and a 50 to 80 ml CCR5 cell pellet was prepared. […]
The saturation curve binding experiment is performed by adding varying amounts of [^125I]MIP1α (0-8.5 nM to membranes and beads in concentrations chosen from the optimal protein/bead ratio. The data is analyzed using a non-linear curve-fitting program. The Kd and Bmax are derived from the curve. […]

T1 sequence (P51681 whole entry): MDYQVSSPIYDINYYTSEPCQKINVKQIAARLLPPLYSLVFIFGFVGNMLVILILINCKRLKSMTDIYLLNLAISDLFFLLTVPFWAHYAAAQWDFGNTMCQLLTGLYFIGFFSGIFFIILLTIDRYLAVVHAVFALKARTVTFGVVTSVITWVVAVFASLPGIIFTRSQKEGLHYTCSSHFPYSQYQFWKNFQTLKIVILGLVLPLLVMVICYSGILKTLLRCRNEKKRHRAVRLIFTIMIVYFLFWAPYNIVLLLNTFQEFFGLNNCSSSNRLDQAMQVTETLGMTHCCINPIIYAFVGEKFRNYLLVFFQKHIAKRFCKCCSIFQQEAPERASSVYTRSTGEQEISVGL

Substance: MIP1α: natural chemokine ligand of CCR5, used as the standard compound in the CCR5 SPA binding assay
- average historical pKi: 7.6
